According to the supplement of paper PMC9112550, “Optimization of the antimicrobial peptide Bac7 by deep mutational scanning” (BMC Biology, 2022):

Test system: Escherichia coli TOP10
Assay: shrunken log2 fold change of peptide-encoding DNA abundance (4.5 h post-induction vs induction); higher = less antimicrobial activity (less host growth inhibition)
Conditions: time post-induction: 4.5 h; library: site-saturation at positions 5, 18, 19, 20
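Also: peptides expressed intracellularly from a pBAD plasmid library in pooled LB shake-flask culture, induced with 0.3% L-arabinose, DNA abundance read by NGS, three biological replicates, DESeq2 with apeglm shrinkage.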

First: RRIRPRPPRLPRPRPRPSQDPRP
Second: RRIRPRPPRLPRPRPRPSQWPRP
The “shrunken log2 fold change” value of the first is lower: -0.334 for the first, -0.0044 for the second.

Compared with RRIRPRPPRLPRPRPRPSRHPRP, RRIRPRPPRLPRPRPRPSRVPRP is higher in “shrunken log2 fold change” value: -0.0917 for the first, 0.269 for the second.

Going from RRIRPRPPRLPRPRPRPSSCPRP to RRIRPRPPRLPRPRPRPSSRPRP, the “shrunken log2 fold change” value falls from 0.0133 to -0.863.

First: RRIRPRPPRLPRPRPRPSTSPRP
Second: RRIRPRPPRLPRPRPRPSVCPRP
The “shrunken log2 fold change” value of the first is higher: -0.0506 for the first, -0.273 for the second.

First: RRIRPRPPRLPRPRPRPSWTPRP
Second: RRIRPRPPRLPRPRPRPSWYPRP
The “shrunken log2 fold change” value of the first is higher: -0.326 for the first, -0.698 for the second.

Going from RRIRPRPPRLPRPRPRPSYEPRP to RRIRPRPPRLPRPRPRPSYYPRP, the “shrunken log2 fold change” value falls from -0.178 to -0.721.

RRIRPRPPRLPRPRPRPTAFPRP and RRIRPRPPRLPRPRPRPTAIPRP are within 0.2 log units of each other in “shrunken log2 fold change” value: 0.238 for the first, 0.434 for the second.

Compared with RRIRPRPPRLPRPRPRPTAKPRP, RRIRPRPPRLPRPRPRPTCLPRP is lower in “shrunken log2 fold change” value: 0.152 for the first, -0.105 for the second.

RRIRPRPPRLPRPRPRPTCQPRP and RRIRPRPPRLPRPRPRPTFSPRP are within 0.2 log units of each other in “shrunken log2 fold change” value: -0.0775 for the first, -0.182 for the second.

RRIRPRPPRLPRPRPRPTGKPRP and RRIRPRPPRLPRPRPRPTLCPRP are within 0.2 log units of each other in “shrunken log2 fold change” value: 0.102 for the first, -0.0815 for the second.

First: RRIRPRPPRLPRPRPRPTLLPRP
Second: RRIRPRPPRLPRPRPRPTLPPRP
The “shrunken log2 fold change” value of the first is lower: -0.0649 for the first, 0.309 for the second.

Going from RRIRPRPPRLPRPRPRPTLWPRP to RRIRPRPPRLPRPRPRPTMGPRP, the “shrunken log2 fold change” value falls from 0.299 to 0.0476.

RRIRPRPPRLPRPRPRPTNPPRP and RRIRPRPPRLPRPRPRPTPHPRP are within 0.2 log units of each other in “shrunken log2 fold change” value: 0.174 for the first, 0.373 for the second.

Compared with RRIRPRPPRLPRPRPRPTPWPRP, RRIRPRPPRLPRPRPRPTQLPRP is lower in “shrunken log2 fold change” value: 0.427 for the first, 0.166 for the second.

Compared with RRIRPRPPRLPRPRPRPTRKPRP, RRIRPRPPRLPRPRPRPTRQPRP is lower in “shrunken log2 fold change” value: 0.483 for the first, 0.221 for the second.

Going from RRIRPRPPRLPRPRPRPTSKPRP to RRIRPRPPRLPRPRPRPTTFPRP, the “shrunken log2 fold change” value falls from 0.188 to -0.173.

RRIRPRPPRLPRPRPRPTTIPRP and RRIRPRPPRLPRPRPRPTTLPRP are within 0.2 log units of each other in “shrunken log2 fold change” value: -0.223 for the first, -0.0741 for the second.

Compared with RRIRPRPPRLPRPRPRPTTMPRP, RRIRPRPPRLPRPRPRPTVAPRP is higher in “shrunken log2 fold change” value: -0.126 for the first, 0.277 for the second.

RRIRPRPPRLPRPRPRPTWVPRP and RRIRPRPPRLPRPRPRPVAFPRP are within 0.2 log units of each other in “shrunken log2 fold change” value: 0.0694 for the first, -0.0622 for the second.

RRIRPRPPRLPRPRPRPVASPRP and RRIRPRPPRLPRPRPRPVAYPRP are within 0.2 log units of each other in “shrunken log2 fold change” value: 0.00755 for the first, -0.173 for the second.

RRIRPRPPRLPRPRPRPVDCPRP and RRIRPRPPRLPRPRPRPVDEPRP are within 0.2 log units of each other in “shrunken log2 fold change” value: 0.00936 for the first, 0.0247 for the second.

RRIRPRPPRLPRPRPRPVDQPRP and RRIRPRPPRLPRPRPRPVFHPRP are within 0.2 log units of each other in “shrunken log2 fold change” value: -0.256 for the first, -0.178 for the second.

RRIRPRPPRLPRPRPRPVKHPRP and RRIRPRPPRLPRPRPRPVKNPRP are within 0.2 log units of each other in “shrunken log2 fold change” value: -0.0566 for the first, 0.00624 for the second.

RRIRPRPPRLPRPRPRPVMIPRP and RRIRPRPPRLPRPRPRPVMYPRP are within 0.2 log units of each other in “shrunken log2 fold change” value: -0.251 for the first, -0.0963 for the second.

RRIRPRPPRLPRPRPRPVPKPRP and RRIRPRPPRLPRPRPRPVPQPRP are within 0.2 log units of each other in “shrunken log2 fold change” value: 0.34 for the first, 0.446 for the second.

First: RRIRPRPPRLPRPRPRPVQPPRP
Second: RRIRPRPPRLPRPRPRPVRMPRP
The “shrunken log2 fold change” value of the first is lower: 0.000272 for the first, 0.213 for the second.

Compared with RRIRPRPPRLPRPRPRPVRQPRP, RRIRPRPPRLPRPRPRPVSLPRP is lower in “shrunken log2 fold change” value: 0.219 for the first, -0.104 for the second.

Going from RRIRPRPPRLPRPRPRPVSQPRP to RRIRPRPPRLPRPRPRPVTIPRP, the “shrunken log2 fold change” value falls from -0.0764 to -0.344.

RRIRPRPPRLPRPRPRPVTKPRP and RRIRPRPPRLPRPRPRPVVGPRP are within 0.2 log units of each other in “shrunken log2 fold change” value: 0.138 for the first, 0.212 for the second.

Compared with RRIRPRPPRLPRPRPRPWCNPRP, RRIRPRPPRLPRPRPRPWDKPRP is lower in “shrunken log2 fold change” value: -0.239 for the first, -0.629 for the second.

RRIRPRPPRLPRPRPRPWENPRP and RRIRPRPPRLPRPRPRPWFHPRP are within 0.2 log units of each other in “shrunken log2 fold change” value: -0.0456 for the first, 0.0116 for the second.

Going from RRIRPRPPRLPRPRPRPWILPRP to RRIRPRPPRLPRPRPRPWKAPRP, the “shrunken log2 fold change” value rises from -0.451 to -0.133.

Going from RRIRPRPPRLPRPRPRPWKNPRP to RRIRPRPPRLPRPRPRPWLAPRP, the “shrunken log2 fold change” value rises from -0.0413 to 0.343.

RRIRPRPPRLPRPRPRPWLQPRP and RRIRPRPPRLPRPRPRPWPEPRP are within 0.2 log units of each other in “shrunken log2 fold change” value: -0.064 for the first, 0.0423 for the second.

RRIRPRPPRLPRPRPRPWPNPRP and RRIRPRPPRLPRPRPRPWQVPRP are within 0.2 log units of each other in “shrunken log2 fold change” value: -0.0364 for the first, -0.0573 for the second.

RRIRPRPPRLPRPRPRPWREPRP and RRIRPRPPRLPRPRPRPWRPPRP are within 0.2 log units of each other in “shrunken log2 fold change” value: -0.00316 for the first, 0.12 for the second.

RRIRPRPPRLPRPRPRPWSAPRP and RRIRPRPPRLPRPRPRPWTIPRP are within 0.2 log units of each other in “shrunken log2 fold change” value: -0.00633 for the first, -0.117 for the second.

RRIRPRPPRLPRPRPRPWVCPRP was tested, and the “shrunken log2 fold change” value was 0.23.
